Measurements taken from patent US20060084798.

Test system: MOP7/human ARNT (transfected) (Mus musculus)
Test: cell_activity
Details: COS-1 luciferase; enhanced by hypoxia or CoCl2

Substance: HRE reporter (six HRE enhancer elements)
- activity: 11.7 fold
